Data from PMC8080530, “Glucocorticoid receptor Thr524 phosphorylation by MINK1 induces interactions with 14-3-3 protein regulators” (The Journal of Biological Chemistry, 2021).
One block for each compound: values may come before it. Non-standard residues stand in square brackets, D forms with d. Residues, ends and D or L forms follow the SMILES beside them. pT = C[C@@H](OP(=O)(O)O)[C@H](N)C(=O)O

Assays:
[1] = molecular target: GFP-GR T524A S617A, full-length GR double mutant (human) (UniProt P04150); assay: co-IP; GFP-Trap agarose beads on RIPA lysates of transfected U2OS or HEK293 cells stimulated with forskolin or calyculin A; blot with anti-pan 14-3-3 antibody
[2] = test system: GR–14-3-3 interaction in HEK293 and U2OS cells; assay: Co-IP and far-Western blotting overlay of GR with 14-3-3 after cell stimulation; type: cell-based; settings: HEK293 and U2OS cells transfected with WT GR, overnight starvation; forskolin 20 µM for 30 min, calyculin A 50 nM for 10 min
Description: The interaction between the full-length GR and 14-3-3 was investigated in a cellular system to validate the relevance of the peptide studies.
The HEK293 and U2OS cell lines (American Type Culture Collection) were cultured in Dulbecco's modified Eagle's medium, supplemented with 10% fetal bovine serum and 1% penicillin-streptomycin (10,000 U/ml) at 37 °C in a 5% CO2 environment. For the Co-IP assay, 3 × 10^6 cells were seeded in a 15-cm cell culture dish. At 60 to 70% confluence, the HEK293 cells were transiently transfected with a mixture of 6-μg GFP-MINK1 or GFP-GR DNA and 24-μl lipofectamine 2000 in 2-ml Opti-MEM for 24 h. […]
(§1) Cells were collected and lysed in radioimmunoprecipitation assay buffer containing 50-mM Tris-HCl, pH 8, 150-mM NaCl, 1-mM EDTA, 0.1% SDS, 1% Na deoxycholate, and 1% NP-40 supplemented with a protease inhibitor cocktail. After lysis, the concentration of protein was quantified by the Bradford test. […]
(§2) Eluted proteins were resolved on a NuPAGE 4 to 12% Bis-Tris Protein Gels, 1.0 mm. […] After washing with TBST, the blots were detected using an Odyssey CLx Imaging system (LI-COR). […]
Samples containing proteins from the Co-IP assay or GR LBD in vitro phosphorylated were loaded on a NuPAGE 4 to 12% Bis-Tris Protein Gels, 1.0 mm, and separated. […] After washing with TBST, the blots were detected using an Odyssey CLx Imaging system (LI-COR). […]

[3] = test system: MINK1–14-3-3 interaction in HEK293 cells; assay: Co-IP and far-Western blotting overlay of MINK1 with 14-3-3 after cell stimulation; type: cell-based; settings: HEK293 cells transfected with GFP-MINK1; forskolin 20 µM for 30 min, calyculin A 50 nM for 10 min
Description: The HEK293 and U2OS cell lines (American Type Culture Collection) were cultured in Dulbecco's modified Eagle's medium, supplemented with 10% fetal bovine serum and 1% penicillin-streptomycin (10,000 U/ml) at 37 °C in a 5% CO2 environment. For the Co-IP assay, 3 × 10^6 cells were seeded in a 15-cm cell culture dish. At 60 to 70% confluence, the HEK293 cells were transiently transfected with a mixture of 6-μg GFP-MINK1 or GFP-GR DNA and 24-μl lipofectamine 2000 in 2-ml Opti-MEM for 24 h. At 60 to 70% confluence, the U2OS cells were transiently transfected with a mixture of 8-μg GFP-MINK1 or GFP-GR and/or FLAG-MINK1 DNA and 32-μl X-tremeGENE 9 DNA in 2 ml Opti-MEM for 24 h. Stimulation with forskolin, H89, IGF-1, and PI303 was preceded by a cell starvation step where the cells were incubated with DMEM without supplements overnight. […]
as §1, §2

[4] = molecular target: GR_pT524-pS617 with P526 replaced by alanine (alanine scan) (human) (UniProt P04150); assay: fluorescence polarisation; FITC-labelled peptide at 60 nM (monophosphorylated) or 10 nM (doubly phosphorylated) titrated with 14-3-3ζ or 14-3-3σ in dilution series from 300 μM or 150 μM; 30 min at RT; 384-well plate; Hill fit; triplicates
[5] = molecular target: GR_pS134-pT524, FITC-labelled 31-mer doubly phosphorylated peptide (human) (UniProt P04150); assay: as above
[6] = molecular target: GR_pS524-pS617, FITC-labelled diphosphoserine analogue of GR_pT524-pS617 (human) (UniProt P04150); assay: as above
[7] = molecular target: GR_pT524-pT562, FITC-labelled 51-mer doubly phosphorylated peptide with the native sequence as a linker (human) (UniProt P04150); assay: as above
[8] = molecular target: GR_pS134, FITC-labelled 13-mer phosphopeptide (human) (UniProt P04150); assay: as above
[9] = molecular target: GR_pT524-pS617 with pT524 replaced by alanine (alanine scan) (human) (UniProt P04150); assay: as above
[10] = molecular target: GR_pT524-pS617 with R614 replaced by alanine (alanine scan) (human) (UniProt P04150); assay: as above
[11] = molecular target: GR_pT524-pS617 with pS617 replaced by alanine (alanine scan) (human) (UniProt P04150); assay: as above
[12] = molecular target: GR_pT524-pS617 with K518 replaced by alanine (alanine scan) (human) (UniProt P04150); assay: as above
[13] = molecular target: GR_pT524-pS617, FITC-labelled 31-mer doubly phosphorylated peptide (human) (UniProt P04150); assay: as above
[14] = molecular target: human 14-3-3ζ, full length, 6His-Linker-h14-3-3 (human) (UniProt P63104); assay: SPR; Biacore 3000; 6His-tagged 14-3-3 immobilised on an NTA chip (2000 RU 14-3-3ζ, 4000 RU 14-3-3σ); peptides injected in HBS P+ buffer with 1 or 3% DMSO, 20 μl/min; Hill fit; triplicates
14-3-3σ = molecular target: T1, 14-3-3σ (Homo sapiens, UniProt P31947); assay: FP assay with GR phosphorylated peptides and 14-3-3σ; type: binding; settings: FITC-labeled peptide titrated with 14-3-3σ, 30 min RT, triplicates
T1 construct: Full-length expression and purification of 14-3-3; made in house; host or cells: E. coli BL21 (DE3)STAR
T1 sequence (P31947 1-248): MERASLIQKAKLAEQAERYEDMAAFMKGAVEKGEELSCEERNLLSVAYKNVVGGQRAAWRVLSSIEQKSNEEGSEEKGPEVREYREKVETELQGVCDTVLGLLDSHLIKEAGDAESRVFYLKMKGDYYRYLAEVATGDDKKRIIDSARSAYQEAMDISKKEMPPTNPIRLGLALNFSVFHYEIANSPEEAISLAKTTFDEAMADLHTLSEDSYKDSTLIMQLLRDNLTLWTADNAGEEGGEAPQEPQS
Description: After 30-min incubation at RT, the plates were read on a plate reader PHERAstar (BMG LABTECH GmbH) for FP signal using […] and standard excitation (485 nm) and emission (520 nm). Measurements were performed as triplicates. Binding data were fit to a standard Hill equation using the software Genedata Screener. The figures were made using the software GraphPad Prism 8. FP data were expressed as millipolarization (mP) units, and the dynamic range (ΔmP) was the difference of the signals from the bound peptide and free peptide. Errors are the standard error of the fit.

14-3-3ζ = molecular target: T2, 14-3-3ζ (Homo sapiens, UniProt P63104); assay: FP assay with GR phosphorylated peptides and 14-3-3ζ; type: binding; settings: FITC-labeled peptide 60 nM (monophosphorylated) or 10 nM (doubly phosphorylated) titrated with 14-3-3ζ, 30 min RT, Hill fit, triplicates; read-out: Kd with 14-3-3ζ by FP
T2 construct: Full-length expression and purification of 14-3-3; made in house; host or cells: E. coli BL21 (DE3)STAR
T2 sequence (P63104 1-245): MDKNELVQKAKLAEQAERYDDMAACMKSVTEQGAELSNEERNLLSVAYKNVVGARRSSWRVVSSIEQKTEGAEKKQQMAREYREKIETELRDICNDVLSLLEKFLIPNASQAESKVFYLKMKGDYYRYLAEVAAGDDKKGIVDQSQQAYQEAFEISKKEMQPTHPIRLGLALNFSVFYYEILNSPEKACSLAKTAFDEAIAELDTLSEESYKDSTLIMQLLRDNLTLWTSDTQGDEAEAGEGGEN
Outline: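 Fluorescence polarization (ex 485/em 520 nm) was read in triplicate after 30-min RT incubation. Binding data were fitted to a standard Hill equation and expressed in mP units. The dynamic range (ΔmP) is the difference between bound and free peptide signals.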

Sequence of GR_pT524-pT562, FITC-labelled 51-mer doubly phosphorylated peptide with the native sequence as a linker (human) (P04150 518-568): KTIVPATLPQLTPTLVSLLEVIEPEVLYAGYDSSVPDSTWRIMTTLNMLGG
Sequence of GR_pT524-pT562, 51-mer doubly phosphorylated peptide used for SPR (P04150 518-568): as above
Sequence of GFP-GR T524A S617A, full-length GR double mutant (human) (P04150 whole entry T524A/S617A): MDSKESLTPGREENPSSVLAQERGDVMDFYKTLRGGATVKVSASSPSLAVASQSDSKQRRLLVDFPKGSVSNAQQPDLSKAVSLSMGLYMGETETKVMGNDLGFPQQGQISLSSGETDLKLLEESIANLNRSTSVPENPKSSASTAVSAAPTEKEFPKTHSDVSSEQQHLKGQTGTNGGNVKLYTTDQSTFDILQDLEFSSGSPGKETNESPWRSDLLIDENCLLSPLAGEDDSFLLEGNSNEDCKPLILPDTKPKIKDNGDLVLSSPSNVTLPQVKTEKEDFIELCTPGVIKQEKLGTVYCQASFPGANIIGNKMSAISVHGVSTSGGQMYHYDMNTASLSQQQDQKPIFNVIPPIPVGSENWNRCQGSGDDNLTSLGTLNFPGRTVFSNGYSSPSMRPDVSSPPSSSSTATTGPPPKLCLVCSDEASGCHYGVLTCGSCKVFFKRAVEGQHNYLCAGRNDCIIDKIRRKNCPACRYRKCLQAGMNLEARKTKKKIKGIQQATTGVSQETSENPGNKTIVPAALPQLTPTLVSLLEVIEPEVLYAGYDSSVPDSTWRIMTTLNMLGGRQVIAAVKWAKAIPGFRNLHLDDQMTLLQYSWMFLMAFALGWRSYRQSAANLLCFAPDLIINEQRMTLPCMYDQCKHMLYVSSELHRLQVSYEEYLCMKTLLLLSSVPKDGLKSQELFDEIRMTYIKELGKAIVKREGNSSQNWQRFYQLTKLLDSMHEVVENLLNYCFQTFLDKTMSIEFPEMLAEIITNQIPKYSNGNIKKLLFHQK

decrease of the interaction against the WT GR [1]: 35%
Compound: 14-3-3 proteins, endogenous (detected with anti-pan 14-3-3 antibody) (from UniProt P63104 1-245) (natural protein)

Kd [4]: 1200 nM | Kd [5]: 550 nM | Kd [6]: 140 nM | Kd [7]: 23000 nM | Kd [8]: 90000 nM | Kd [9]: 120000 nM | Kd [10]: 220 nM | Kd [11]: 1300 nM | Kd [12]: 110 nM | Kd [13]: 18 nM
Compound: human 14-3-3ζ, full length, 6His-Linker-h14-3-3 (from UniProt P63104 1-245) (natural protein)

The next lines start with the compound.

Compound: C=C[C@@]1(C)CC(=O)[C@]2(O)[C@@]3(C)[C@@H](O)CCC(C)(C)[C@@H]3[C@H](O)[C@H](OC(C)=O)[C@@]2(C)O1 [forskolin]
GR interaction with 14-3-3 proteins upon stimulation [2]: GR interacted with 14-3-3 proteins | MINK1 interaction with 14-3-3 upon stimulation [3]: MINK1 also interacts with 14-3-3

Compound: GR_pT524-pT562, 51-mer doubly phosphorylated peptide used for SPR (from UniProt P04150 518-568)
Kd [14]: 15000 nM

Compound: COC[C@@H]([C@H](O)[C@H](O)C(=O)NCC[C@H](C)c1nc(/C=C/C[C@@H]2O[C@]3(C[C@@H](O)[C@@H]2C)O[C@H]([C@H](C[C@H](O)[C@H](C)[C@H](O)[C@H](C)/C=C(C)/C(C)=C/C=C/C(C)=C\C#N)OC)[C@H](OP(=O)(O)O)C3(C)C)co1)N(C)C [calyculin A]
GR interaction with 14-3-3 proteins upon stimulation [2]: GR interacted with 14-3-3 proteins | MINK1 interaction with 14-3-3 upon stimulation [3]: MINK1 also interacts with 14-3-3

Compound: CC[C@H](C)[C@H](NC(=O)[C@H](CCCCN)NC(=O)[C@H](CCCCN)NC(=O)[C@H](CCCCN)NC(=O)[C@@H](NC(=O)[C@H](CCCCN)NC(=O)[C@H](CCCNC(=N)N)NC(=O)[C@H](C)NC(=O)[C@H](CCC(=O)O)NC(=O)[C@H](CC(C)C)NC(=O)[C@@H](N)CC(N)=O)[C@@H](C)OP(=O)(O)O)C(=O)N[C@@H](CCCCN)C(=O)NCC(=O)O [GR_pT493] (H-NLEARK[pT]KKKIKG-OH; N-terminus assumed)
Kd (14-3-3σ): > 150000 nM | Kd (14-3-3ζ): > 150000 nM
